{"source": "patent US20230348564A1", "about": "“ANTI-CANCER PROTEINS” (UNICHEM LABORATORIES LTD, priority 2020, published 2023)", "molecules": {"B1": {"name": "SEQ ID NO. 2: recombinant lectin; variant of the S. rolfsii lectin amino acid sequence (reported as Rec-2 in WO 2010/095143) (protein)", "chain": "TYKITVRVYQTNPDAFFHPVEKTVWKYANGGTWTITDDQHVLTMGGSGTSGTLRFHADNGESFTATFGVHNYKRWCDIVTNLAADETGMVINQQYYSQKNREEARERQLSNYQVKNAKGRNFQIVYTEAEGNDLHANLIIG", "modifications": "In vitro synthesis"}}, "key": {"[1]": {"tested_on": "HT-29 (Colorectal cancer)", "assay": "Xenograft study", "format": "in vivo, mice", "source_text": "(§1) The Xenograft models used were HT-29, KB, PA-1, MCF-7, PANC-1, T24 and MDA-MB-231. The basic study design for the Xenograft study was as follows: • 1. Cell maintenance and cell suspension preparation • 2. Aseptic injection of tumor cell suspension in the donor animal • 3. Randomization of animals in respective groups • 4. IP dosing of test items in predetermined doses • 5. IP administration of standard • 6. After completion of dosing period. • 7. The Tumor volume recording weekly twice while body weight and clinical signs daily."}, "KB (Cervical cancer)": {"tested_on": "KB (Cervical cancer)", "assay": "Xenograft study", "format": "in vivo, mice", "conditions": "IP", "source_text": "as §1"}, "MCF-7 (Breast cancer)": {"tested_on": "MCF-7 (Breast cancer)", "assay": "Xenograft study", "format": "in vivo, mice", "conditions": "MCF-7 xenograft, IP", "source_text": "as §1"}, "[2]": {"tested_on": "MDA-MB-231 (Mammary gland/breast adenocarcinoma)", "assay": "Xenograft study", "format": "in vivo, mice", "conditions": "MDA-MB-231 xenograft, IP", "source_text": "as §1"}, "[3]": {"tested_on": "PA-1 (Ovary teratocarcinoma)", "assay": "Xenograft study", "format": "in vivo, mice", "conditions": "PA-1 xenograft, IP", "source_text": "as §1"}, "[4]": {"tested_on": "PANC-1 (Pancreas/duct epithelioid carcinoma)", "assay": "Xenograft study", "format": "in vivo, mice", "conditions": "PANC-1 xenograft, IP", "source_text": "as §1"}, "[5]": {"tested_on": "T24 (Urinary bladder/transitional cell carcinoma)", "assay": "Xenograft study", "format": "in vivo, mice", "conditions": "IP", "source_text": "as §1"}, "[6]": {"tested_on": "EA.hy926 (Human endothelial cells)", "assay": "endothelial cell proliferation by MTT assay", "format": "cell-based", "conditions": "for % inhibition of FBS stimulated cell growth / Mean (MTT absorbance): 72 h", "protocol": "The cell line used for the study was EA.hy926 (Human endothelial cells) which was procured from National Centre for Cell Science, Pune (India). The cell line was maintained in DMEM+10% FBS (heat inactivated) at 37° C. with 5% CO2, and 95% humidity. […] Untreated cells with complete medium (10% FBS) served as complete medium control, cells with sera free medium served as SFM control and the cells treated with Paclitaxel served as positive control.\nThe percentage cytotoxicity corresponding to each treatment was calculated."}, "Contactin-1": {"tested_on": "Contactin-1", "assay": "biomarker levels in IOMM-Lee by multiplex analysis", "format": "cell-based, Human", "conditions": "1 μg/mL-80 μg/mL, 48 h", "source_text": "(§2) Effect of SEQ ID No 2 on the expression of following 7 biomarkers were estimated in Human Meningioma cell line (IOMM-Lee) using multiplex analysis: TNF-alpha, VEGF, VEGFR2, HGF, HGFR/c-MET, PDGF-BB, and Contactin-1. Levels of another marker, Notch-1 were also estimated by ELISA in the same cell line. These 8 biomarkers play very crucial role in the pathogenesis and progression of Brain Tumor. […] Supernatants were collected and the levels of these 8 markers were investigated."}, "HGFR/c-MET": {"tested_on": "HGFR/c-MET", "assay": "biomarker levels in IOMM-Lee by multiplex analysis", "format": "cell-based, Human", "conditions": "1 μg/mL-80 μg/mL, 48 h", "source_text": "as §2"}, "HGF": {"tested_on": "HGF", "assay": "biomarker levels in IOMM-Lee by multiplex analysis", "format": "cell-based, Human", "conditions": "1 μg/mL-80 μg/mL, 48 h", "source_text": "as §2"}, "PDGF-BB": {"tested_on": "PDGF-BB", "assay": "biomarker levels in IOMM-Lee by multiplex analysis", "format": "cell-based, Human", "conditions": "1 μg/mL-80 μg/mL, 48 h", "source_text": "as §2"}, "TNF-α": {"tested_on": "TNF-α", "assay": "biomarker levels in IOMM-Lee by multiplex analysis", "format": "cell-based, Human", "conditions": "1 μg/mL-80 μg/mL, 48 h", "source_text": "as §2"}, "VEGFR2": {"tested_on": "VEGFR2", "assay": "biomarker levels in IOMM-Lee by multiplex analysis", "format": "cell-based, Human", "conditions": "1 μg/mL-80 μg/mL, 48 h", "source_text": "as §2"}, "VEGF": {"tested_on": "VEGF", "assay": "biomarker levels in IOMM-Lee by multiplex analysis", "format": "cell-based, Human", "conditions": "1 μg/mL-80 μg/mL, 48 h", "source_text": "as §2"}, "[7]": {"tested_on": "MCF-7 (Human breast adenocarcinoma)", "assay": "MTT cytotoxicity assay", "conditions": "48h", "protocol": "(§3) All the cancer cell lines were procured from National Centre for Cell Science, Pune (India). Cell lines were maintained under conditions as mentioned in Table 23. The cell lines were sub-cultured by trypsinization followed by splitting the cell suspension into fresh flasks and supplementing with fresh culture medium.\n(§4) All the cell lines were grown in specified media at 37° C. with 95% Humidity and 5% CO2.\n(§5) The cells were trypsinized, counted by Trypan blue method in Neuebauer's Chamber and plated in wells of flat bottom 96-well plate at the density corresponding to 10×10^3 cells/well/200 μL medium.\n(§6) Following overnight incubation, the media in the plate was replenished with 180 μL/well and then the cells were treated with 20 μL of each test item at concentrations ranging from 2.5 μg/mL-80 μg/mL in triplicates, so that the total volume in each well is 200 μL.\n(§7) The untreated cells served as negative control. The cells were incubated with the test items or positive control for a time period of 48h. Following incubation, the cell cytotoxicity was estimated using MTT assay. Absorbance was measured at 540 nm. The percentage cytotoxicity corresponding to each treatment was calculated using the formula:\n(§8) % Cytotoxicity=(1−X/R)*100\n(§9) Where X=absorbance of wells corresponding to treated cells R=absorbance of untreated cells (cells maintained in growth medium only)\n(§10) IC50 value was calculated using Graph-Pad Prism version 4.01 software."}, "[8]": {"tested_on": "MDA-MB-231 (Human breast adenocarcinoma)", "assay": "MTT cytotoxicity assay", "conditions": "48h", "protocol": "as §3, §4, §5, §6, §7, §8, §9, §10"}, "[9]": {"tested_on": "MIA PaCa-2 (Human pancreatic carcinoma)", "assay": "MTT cytotoxicity assay", "conditions": "48h", "protocol": "as §3, §4, §5, §6, §7, §8, §9, §10"}, "[10]": {"tested_on": "PANC-1 (Human pancreatic epitheloid carcinoma)", "assay": "MTT cytotoxicity assay", "conditions": "48h", "protocol": "as §3, §4, §5, §6, §7, §8, §9, §10"}, "[11]": {"tested_on": "PBMCs (Peripheral blood mononuclear cells)", "assay": "MTT cytotoxicity assay", "conditions": "48h", "protocol": "as §3, §4, §5, §6, §7, §8, §9, §10"}, "[12]": {"tested_on": "T-47D (Human mammary gland ductal carcinoma)", "assay": "MTT cytotoxicity assay", "conditions": "48h", "protocol": "as §3, §4, §5, §6, §7, §8, §9, §10"}, "[13]": {"tested_on": "T24 (Human Bladder Cancer)", "assay": "MTT cytotoxicity assay", "conditions": "48h", "protocol": "as §3, §4, §5, §6, §7, §8, §9, §10"}}, "data": [{"molecule": "B1", "values": [{"measurement": "tumor volume in comparison with the vehicle control group, in words", "setting": "[1]; 20 mg/Kg and 30 mg/Kg body weight (daily)", "result": "significant decrease in tumor volume"}, {"measurement": "Maximum Tumor Growth Inhibition (%)", "setting": "[1]; HT-29 xenograft, IP", "result": 56.62, "unit": "%"}, {"measurement": "Tumor Volume (mm^3) (Mean ± SEM)", "setting": "[1]; HT-29 xenograft, IP", "result": "1702 ± 274", "unit": "mm^3"}, {"measurement": "Maximum Tumor Growth Inhibition (%)", "setting": "KB (Cervical cancer)", "result": 60.49, "unit": "%"}, {"measurement": "Tumor Volume (mm^3) (Mean ± SEM)", "setting": "KB (Cervical cancer)", "result": "782 ± 92", "unit": "mm^3"}, {"measurement": "Maximum Tumor Growth Inhibition (%)", "setting": "MCF-7 (Breast cancer)", "result": 69.04, "unit": "%"}, {"measurement": "Tumor Volume (mm^3) (Mean ± SEM)", "setting": "MCF-7 (Breast cancer)", "result": "1256 ± 132", "unit": "mm^3"}, {"measurement": "Maximum Tumor Growth Inhibition (%)", "setting": "[2]", "result": 35.21, "unit": "%"}, {"measurement": "Tumor Volume (mm^3) (Mean ± SEM)", "setting": "[2]", "result": "834.80 ± 126.95", "unit": "mm^3"}, {"measurement": "Maximum Tumor Growth Inhibition (%)", "setting": "[3]", "result": 62.15, "unit": "%"}, {"measurement": "Tumor Volume (mm^3) (Mean ± SEM)", "setting": "[3]", "result": "1050 ± 132", "unit": "mm^3"}, {"measurement": "Maximum Tumor Growth Inhibition (%)", "setting": "[4]", "result": 39.15, "unit": "%"}, {"measurement": "Tumor Volume (mm^3) (Mean ± SEM)", "setting": "[4]", "result": "721.17 ± 194.63", "unit": "mm^3"}, {"measurement": "Maximum Tumor Growth Inhibition (%)", "setting": "[5]", "result": 36.52, "unit": "%"}, {"measurement": "Tumor Volume (mm^3) (Mean ± SEM)", "setting": "[5]", "result": "551.06 ± 10.02", "unit": "mm^3"}, {"measurement": "% inhibition of FBS stimulated cell growth", "setting": "[6]; 2.5 μg/mL", "result": "−9.83", "unit": "%"}, {"measurement": "Mean (MTT absorbance)", "setting": "[6]; 2.5 μg/mL", "result": 1.761}, {"measurement": "% inhibition of FBS stimulated cell growth", "setting": "[6]; 5 μg/mL", "result": "−12.16", "unit": "%"}, {"measurement": "Mean (MTT absorbance)", "setting": "[6]; 5 μg/mL", "result": 1.799}, {"measurement": "% inhibition of FBS stimulated cell growth", "setting": "[6]; 10 μg/mL", "result": "−16.59", "unit": "%"}, {"measurement": "Mean (MTT absorbance)", "setting": "[6]; 10 μg/mL", "result": 1.870}, {"measurement": "inhibition of endothelial cell proliferation as compared to control", "setting": "[6]; 20 μg/mL to 100 μg/mL", "result": "15.51% to 58.53%"}, {"measurement": "% inhibition of FBS stimulated cell growth", "setting": "[6]; 20 μg/mL", "result": 15.51, "unit": "%"}, {"measurement": "Mean (MTT absorbance)", "setting": "[6]; 20 μg/mL", "result": 1.355}, {"measurement": "% inhibition of FBS stimulated cell growth", "setting": "[6]; 40 μg/mL", "result": 29.22, "unit": "%"}, {"measurement": "Mean (MTT absorbance)", "setting": "[6]; 40 μg/mL", "result": 1.135}, {"measurement": "% inhibition of FBS stimulated cell growth", "setting": "[6]; 80 μg/mL", "result": 56.50, "unit": "%"}, {"measurement": "Mean (MTT absorbance)", "setting": "[6]; 80 μg/mL", "result": 0.698}, {"measurement": "% inhibition of FBS stimulated cell growth", "setting": "[6]; 100 μg/mL", "result": 58.53, "unit": "%"}, {"measurement": "Mean (MTT absorbance)", "setting": "[6]; 100 μg/mL", "result": 0.665}, {"measurement": "Percentage inhibition on levels of Contactin-1", "setting": "Contactin-1", "result": "0.3%-27.2%"}, {"measurement": "Percentage inhibition on levels of HGFR/c-MET", "setting": "HGFR/c-MET", "result": "5.5%-19.3%"}, {"measurement": "Percentage inhibition on levels of HGF", "setting": "HGF", "result": "43.8%-93%^"}, {"measurement": "Percentage inhibition on levels of PDGF-BB", "setting": "PDGF-BB", "result": "33.6%-100%"}, {"measurement": "Percentage inhibition on levels of TNF-α", "setting": "TNF-α", "result": "16.8%-42.3%"}, {"measurement": "Percentage inhibition on levels of VEGFR2", "setting": "VEGFR2", "result": "17.8%-22.5%"}, {"measurement": "Percentage inhibition on levels of VEGF", "setting": "VEGF", "result": "3.9%-49.3%"}, {"measurement": "IC50", "setting": "[7]", "result": ">80", "unit": "µg/mL"}, {"measurement": "IC50", "setting": "[8]", "result": 9.7, "unit": "µg/mL"}, {"measurement": "IC50", "setting": "[9]", "result": ">80", "unit": "µg/mL"}, {"measurement": "IC50", "setting": "[10]", "result": 24.3, "unit": "µg/mL"}, {"measurement": "IC50", "setting": "[11]", "result": ">80", "unit": "µg/mL"}, {"measurement": "IC50", "setting": "[12]", "result": ">80", "unit": "µg/mL"}, {"measurement": "IC50", "setting": "[13]", "result": 10.4, "unit": "µg/mL"}, {"measurement": "% Cytotoxicity", "setting": "MCF-7", "result": 28.0, "unit": "%"}]}]}
